Measured values: patent US12059448B2, “Pharmaceutical composition comprising thrombolytic peptide-tetrahydroisoquinoline conjugate” (Lumosa Therapeutics Co., LTD, priority 2019, dated 2024)

Experiment: Formulation stability in different pH solutions (Example 2), DC009 assay recovery by HPLC
Type: physicochemical
Experimental: DC009 were prepared according to the US Publication Application No. 2016-0083423. The final product was washed repetitively by DCM, THF and ethyl ether several times to increase the purity of the final product. The concentration and purity of DC009 in a solution are determined by HPLC with the following conditions. • Column: alkyl reversed-phase bounded phase column • Mobile Phase (MP): MP A: 0.1% by volume TFA in DI water/MP B: 0.1% by volume TFA in acetonitrile • Detection Wavelength: 214 & 280 nm • Column Temperature: 20-25° C. • Sample Temperature: 10-15° C. • Injection Volume: 10-20 μL • Gradient: MP A and MP B
In Examples 2-6, the stability of each formulation is shown as “assay recovery” or “relative purity level”. Samples at each time point was analyzed by HPLC as described above. For “Assay Recovery”, the % number is calculated by dividing the DC009 concentration at the time point by the DC009 concentration at T=0. For “Relative purity level”, the % number is calculated by (Peak area % of DC009 at Tn/Peak area % of DC009 at T0)*100%. […]
These formulations were stored at 40° C. and 60° C. to evaluate the assay recovery and total impurity. The appearance and stability at each storage condition were recorded at Table 2 and Table 3.

SMILES: C[C@H](NC(=O)[C@@H]1CCCN1)C(=O)N[C@@H](CCCCN)C(=O)NCCCC[C@H](NC(=O)[C@@H]1Cc2cc(O)c(O)cc2C(C)(C)N1)C(=O)O [DC009, 3S-6,7-dihydroxy-1,1-dimethyl-1,2,3,4-tetrahydro-isoquinoline-3-acyl-Lys(Pro-Ala-Lys)]
- stability of DC009 (acidic conditions): stable
- stability of DC009 (pH between 4 and 5): very stable
